The record followed here is US20240425848.

The data set addresses histone H3 trimethylated at lysine 9 (H3K9me3) in native chromatin of Caki-1 cells, P68431.

B1: Tn5 (protein)
chain: MITSALHRAADWAKSVFSSAALGDPRRTARLVNVAAQLAKYSGKSITISSEGSKAMQEGAYRFIRNPNVSAEAIRKAGAMQTVKLAQEFPELLAIEDTTSLSYRHQVAEELGKLGSIQDKSRGWWVHSVLLLEATTFRTVGLLHQEWWMRPDDPADADEKESGKWLAAAATSRLRMGSMMSNVIAVCDREADIHAYLQDKLAHNERFVVRSKHPRKDVESGLYLYDHLKNQPELGGYQISIPQKGVVDKRGKRKNRPARKASLSLRSGRITLKQGNITLNAVLAEEINPPKGETPLKWLLLTSEPVESLAQALRVIDIYTHRWRIEEFHKAWKTGAGAERQRMEEPDNLERMVSILSFVAVRLLQLRESFTPPQALRAQGLLKEAEHVESQSAETVLTPDECQLLGYLDKGKRKRKEKAGSLQWAYMAIARLGGFMDSKRTGIASWGALWEGWEALQSKLDGFLAAKDLMAQGIKI
Turning to B1, the “Ec: global enrichment of the ATAC-seq tagmentation signal over H3K9me3-marked regions, log2(ratio) over genomic Input, Caki-1; subscript printed as 0, first E line of the box” value was “E0= -5.07”; the “Ec: global enrichment of the ATAC-seq tagmentation signal over H3K9me3-marked regions, log2(ratio) over genomic Input, Caki-1 [Continued) e]” value was “Ec= -5.07”; the “Mc: modal enrichment of the ATAC-seq tagmentation signal over H3K9me3-marked regions, log2(ratio) over genomic Input, Caki-1; subscript printed as 0, first M line of the box, agrees with the mode of t” value is given as “M0= -2.19”; the “Mc: modal enrichment of the ATAC-seq tagmentation signal over H3K9me3-marked regions, log2(ratio) over genomic Input, Caki-1 [Continued) e]” value is listed as “Mc= -2.19”. The “stated: no tagmentation signal over H3K9me3 ChIP-seq domains (ATAC-seq on permeabilized Caki-1 nuclei)” value is “Tn5 track (scale 0-140.7): near zero over the H3K9me3 domains at about 42.4-43.4 and 43.8-44.6 Mbp of Chr. 19; peaks only where the H3K4me3 track has peaks”; the “stated: no tagmentation signal over H3K9me3 ChIP-seq domains (ATAC-seq, Caki-1)” value is “Tn5 track (scale 0-50): clusters of sharp peaks at the positions of the H3K4me3 peaks; near zero at about 59-62 Mbp of Chr.12, where the H3K9me3 and TnH tracks are raised”; the “stated: no tagmentation signal over H3K9me3 ChIP-seq domains (bulk ATAC-seq with Tn5 alone and scGET-seq pseudo-bulk, Caki-1) [Continued) g]” value was “tn5 and tn5 pseudobulk tracks (scale 0-50 each): flat near 0 at about 33.5-34.7 Mbp and near 0 inside the H3K9me3 domains at about 36.6-37.4 and 38.2-38.9 Mbp of chr1; sharp peaks at the positions of the H3K4me3 peaks”.
